Measured values published in US11827911B2, “Chimeric bacteriophage lysin with activity against Staphylococci bacteria” (priority 2008, dated 2023).

Tests used:
[1] = Solubility of expressed lysins and chimeras; conditions: qualitative
Experimental: In another embodiment, the lysin is a chimeric protein that comprises an endopeptidase domain of the S. aureus Twort lysin upstream of the phiNM3 CWT domain (SEQ ID NO:1). The chimeric polypeptide is preferably sufficiently soluble in phosphate buffered saline (PBS). Preferred levels of solubility in PBS for the chimeric lysins is at least about 1 mg/ml and more preferably at least about 3 mg/mL. in PBS. […] One example of such a lysin is provided in SEQ ID NO:2 (AD127), shown in FIG. 5A and consisting of the Twort lysin endopeptidase domain attached to the phiNM3 CWT domain (SEQ ID NO:1). The isolated polypeptide of SEQ ID NO:2 (AD 127) was constructed by engineering S. epidermidis autolysin amidase and Twort lysin endopeptidase domains upstream of phiNM3 CWT domain, respectively.
Traditionally, Bacillus-specific lysins are expressed at high levels and are soluble in E. coli. Therefore, our first attempt was to engineer a 16-amino acid peptide (4) that is conserved in several S. aureus-specific lysins (Lu J Z, Fujiwara T, Komatsuzawa H, Sugai M, Sakon J. 2006. Cell wall-targeting domain of glycylglycine endopeptidase distinguishes among peptidoglycan cross-bridges. (Lue et al. (2006) J. Biol. Chem. 281(1):549-58) The catalytic domain of the Bacillus-specific lysin PlyB was used to generate chimera AD 103 (FIG. 4) (SEQ ID NO: 13). The chimeras were tested for expression, solubility and activity. Then the entire C-terminal CWT domain of PlyB (6) was replaced by the putative C-terminal domain of S. aureus phage Twort lysin (8) to obtain AD 105 (SEQ ID NO: 14). […] Since the lysostaphin catalytic domain […] (10) in AD 112 was of bacterial origin, we attempted to engineer a phage-derived catalytic domain upstream of the lysostaphin CWT. For this, the endopeptidase domain in Twort lysin (14) was used to construct chimera AD 119 (SEQ ID NO:3).

S. aureus = test: Binding of FITC-labeled phiNM3 CWT to bacterial cells, fluorescence microscopy; parameters: species or system Staphylococcus aureus; conditions: FITC-labeled protein 50 μg, 10 minutes; single or mixed populations
Description: (§1) Most preferably, the binding molecule is a soluble binding domain of a bacterial lysin comprising a polypeptide including an amino acid sequence providing specific binding to S. aureus, such as SEQ ID NO:1 (phiNM3 CWT domain). For example, the lysin preferably includes the polypeptide sequence of S. aureus phage phiNM3 lysin (SEQ ID NO:1) (protein accession number YP_908849). The phiNM3 lysin CWT domain (SEQ ID NO:1) corresponding to amino acid residues 158-251 was cloned and expressed. […] FIG. 2A is […] showing the protein of SEQ ID NO:1 in a second column next to a set of marker proteins in a first column. […] Group A streptococci, E. coli and Bacillus cereus were used as controls.
Fluorescent labeling and binding analyses were performed on phiNM3 CWT. S. aureus strain 8325-4 genomic DNA was used to amplify the putative CWT of phiNM3 lysin using primers NM3-FWD […]-3′ (SEQ ID NO:10) and NM3-REV 5′-[…]-3′(SEQ ID NO:11). The resulting amplicon was cloned into the arabinose-inducible expression vector pBAD24. Positive clones containing the insert were confirmed by sequencing. […] The labeled-protein (50 μg) was incubated with bacterial cells for 10 minutes, washed 3× with phosphate-buffered saline (pH 7.4) and observed under fluorescence microscope.

E. coli = test: as above; conditions: FITC-labeled protein 50 μg, 10 minutes
Description: as §1
(§2) Fluorescent labeling and binding analyses were performed on phiNM3 CWT. S. aureus strain 8325-4 genomic DNA was used to amplify the putative CWT of phiNM3 lysin using primers NM3-FWD […]-3′ (SEQ ID NO:10) and NM3-REV 5′-[…]-3′(SEQ ID NO:11). The resulting amplicon was cloned into the arabinose-inducible expression vector pBAD24. Positive clones containing the insert were confirmed by sequencing. The approximately 10-kDa phiNM3 CWT protein was expressed and the protein was purified in one step by cation-exchange chromatography. The purified protein (1 mg/ml) was incubated with 10 μl of FITC (1 mg/ml) for 1 hour. Excess FITC was removed on a desalting column. The labeled-protein (50 μg) was incubated with bacterial cells for 10 minutes, washed 3× with phosphate-buffered saline (pH 7.4) and observed under fluorescence microscope.

Bacillus cereus = test: as above; conditions: FITC-labeled protein 50 μg, 10 minutes
Description: as §1, §2

S. epidermidis = test: as above; conditions: FITC-labeled protein 50 μg, 10 minutes
Description: as §1, §2

Group A streptococci = test: as above; conditions: FITC-labeled protein 50 μg, 10 minutes
Description: as §1, §2

B1: phiNM3 CWT domain: cell wall targeting domain, amino acid residues 158-251 of S. aureus phage phiNM3 lysin, approximately 10-kDa; tested FITC-labeled (protein)
chain: GKSASKITVGSKAPYNLKWSKGAYFNAKIDGLGATSATRYGDNRTNYRFDVGQAVYAPGTLIYVFEIIDGWCRIYWNNHNEWIWHERLIVKEVF
modifications: FITC label; Staphylococcus aureus phage phiNM3
notes: cell wall targeting domain, amino acid residues 158-251 of S. aureus phage phiNM3 lysin, approximately 10-kDa; tested FITC-labeled
solubility of the expressed protein [1]: highly soluble | binding to S. aureus cells (S. aureus): bound specifically | binding to E. coli (E. coli): not observed | binding to Bacillus (Bacillus cereus): not observed | binding to S. epidermidis cells (S. epidermidis): bound specifically | binding to streptococci (Group A streptococci): not observed
